The data set concerns the molecule itself. Kind of data set: cryo-EM structure; purified rP2X7 in 20 mM Hepes pH 7.0, 100 mM NaCl, 0.5 mM C12M (DDM), incubated 1 hour with small-molecule antagonist (about 200 to 400 uM); six antagonist-bound structures at 2.2 to 2.7 A.

B1: full-length, wild-type rat P2X7 receptor (receptor, UniProt Q64663 1-595, looked up)
chain: MPACCSWNDVFQYETNKVTRIQSVNYGTIKWILHMTVFSYVSFALMSDKLYQRKEPLISSVHTKVKGVAEVTENVTEGGVTKLVHGIFDTADYTLPLQGNSFFVMTNYLKSEGQEQKLCPEYPSRGKQCHSDQGCIKGWMDPQSKGIQTGRCIPYDQKRKTCEIFAWCPAEEGKEAPRPALLRSAENFTVLIKNNIDFPGHNYTTRNILPGMNISCTFHKTWNPQCPIFRLGDIFQEIGENFTEVAVQGGIMGIEIYWDCNLDSWSHRCQPKYSFRRLDDKYTNESLFPGYNFRYAKYYKENGMEKRTLIKAFGVRFDILVFGTGGKFDIIQLVVYIGSTLSYFGLATVCIDLIINTYASTCCRSRVYPSCKCCEPCAVNEYYYRKKCEPIVEPKPTLKYVSFVDEPHIWMVDQQLLGKSLQDVKGQEVPRPQTDFLELSRLSLSLHHSPPIPGQPEEMQLLQIEAVPRSRDSPDWCQCGNCLPSQLPENRRALEELCCRRKPGQCITTSELFSKIVLSREALQLLLLYQEPLLALEGEAINSKLRHCAYRSYATWRFVSQDMADFAILPSCCRWKIRKEFPKTQGQYSGFKYPY
notes: P2X7 receptor (P2X purinoceptor 7), rat; also called rP2X7; source: HEK293 GNTI- cells, BacMam baculovirus transduction; purified (DDM/CHS solubilisation, TALON resin, HRV 3C digestion, Superdex 200 SEC)
B1: the stoichiometry N – broadly, the number of molecules, sites or subunits per partner or assembly – came out at 3.

(Values after PMC11451537, “P2X7 receptors exhibit at least three modes of allosteric antagonism” (Science Advances, 2024).)
